According to patent US10766952B2, “Methods for reducing migraine frequency in a subject in need thereof” (Beth Israel Deaconess Medical Center, Inc., priority 2017, dated 2020):
Positions count from the first letter of the chain named. In names and notes the source's numbering stands. One block for each molecule: values may come before it.

How the values were obtained:
rat α-CGRP = biological target: T1, rat α-CGRP (Rattus norvegicus, UniProt P01256); test: Biacore affinity of antibody G1 Fab and variants to rat α-CGRP; type: binding; settings: 37° C., Fab, screening mode unless underlined
T1 construct: rat α (1-37); host or cells: synthetic peptide
T1 sequence (P01256 83-119 limits assumed): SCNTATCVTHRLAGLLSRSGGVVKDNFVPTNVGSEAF
Procedure: (§1) Biacore assay for affinity determination. […] All Biacore assays were conducted in HBS-EP running buffer (10 mM HEPES pH 7.4, 150 mM NaCl, 3 mM EDTA, 0.005% v/v polysorbate P20). CGRP surfaces were prepared by diluting the N-biotinylated CGRP to a concentration of less than 0.001 mg/mL into HBS-EP buffer and injecting it across the SA sensor chip using variable contact times. Low capacity surfaces, corresponding to capture levels <50 response units (RU) were used for high-resolution kinetic studies, whereas high capacity surfaces (about 800 RU of captured CGRP) were used for concentration studies, screening, and solution affinity determinations. […] Samples were typically injected for lminute at 100 μL/min and dissociation times of at least 10 minutes were allowed. After each binding cycle, surfaces were regenerated with 25 mM NaOH in 25% v/v ethanol, which was tolerated over hundreds of cycles. An entire titration series (typically generated in duplicate) was fit globally to a 1:1 Langmuir binding model using the BlAevaluation program. This returned a unique pair of association and dissociation kinetic rate constants (respectively, kon and koff) for each binding interaction, whose ratio gave the equilibrium dissociation constant (KD=koff/[…]).
(§2) High-resolution analysis of binding interactions with extremely slow offrates. […] The protocol described above was used with the following modifications. The association rate constant (kon) was determined by injecting a 2-fold titration series (in duplicate) spanning 550 nM-1 nM for 30 seconds at 100 μL/min and allowing only a 30 second dissociation phase. The dissociation rate constant (koff) was determined by injecting three concentrations (high, medium, and low) of the same titration series in duplicate for 30 seconds and allowing a 2-hour dissociation phase. The affinity (KD) of each interaction was obtained by combining the kon and koff values obtained in both types of experiments, as shown in Table 4.
(§3) The binding affinities of Fab fragments were determined by Biacore by flowing them across CGRPs on a SA chip.

human α-CGRP = biological target: T2, human α-CGRP (Homo sapiens, UniProt P06881); test: Biacore affinity of antibody G1 Fab and variants to human α-CGRP; type: binding; settings: 37° C., Fab, screening mode unless underlined
T2 construct: 1-37 (WT); purchased; host or cells: synthetic peptide
T2 sequence (P06881 83-119 limits assumed): T1 sequence (P01256 83-119 limits assumed) with S1A, N3D, D25N, E35K
Procedure: as §1, §2, §3

α-rat koff (rat α-CGRP): 0.00294 s⁻¹
α-human koff (human α-CGRP): 0.000539 s⁻¹
B1: M46: G1 variant: L1 R28N; L2 G50A,L56T; H2 E54K,A57N,S58E,H61F; HC-FW3 L99T,A100V (antibody, V domains shown)
VH: EVQLVESGGGLVQPGGSLRLSCAASGFTFSNYWISWVRQAPGKGLEWVAEIRSKSDNEATFYAEAVKGRFTISRDNAKNSLYLQMNSLRAEDTAVYYCTVYFDYGLAIQNYWGQGTLVTVSS
VL: EIVLTQSPATLSLSPGERATLSCKASKNVTTYVSWYQQKPGQAPRLLIYAASNRYTGIPARFSGSGSGTDFTLTISSLEPEDFAVYYCSQSYNYPYTFGQGTKLEIK

α-rat koff (rat α-CGRP): 0.00407 s⁻¹
α-human koff (human α-CGRP): 0.000803 s⁻¹
B2: M65: G1 variant: L1 R28N,T30G; L2 G50A,L56I; H2 E54K,A57C; HC-FW3 L99T,A100V (antibody, V domains shown)
VH: B1 VH with N57C, E58S, F61H
VL: B1 VL with T30G, T56I

α-rat koff (rat α-CGRP): 0.00935 s⁻¹
α-human koff (human α-CGRP): 0.000479 s⁻¹
B3: M56: G1 variant: L1 R28N,T30D; L2 L56S; H2 E54K,A57N,H61F; HC-FW3 L99T,A100V (antibody, V domains shown)
VH: B1 VH with E58S
VL: B1 VL with T30D, A50G, T56S

α-rat koff (rat α-CGRP): 0.00511 s⁻¹
α-human koff (human α-CGRP): 0.00052 s⁻¹
B4: M66: G1 variant: L1 R28N,T30G; L2 L56I; H2 E54K,A57E; HC-FW3 L99T,A100V (antibody, V domains shown)
VH: B1 VH with N57E, E58S, F61H
VL: B1 VL with T30G, A50G, T56I

α-rat koff (rat α-CGRP): 0.0123 s⁻¹
α-human koff (human α-CGRP): 0.000524 s⁻¹
B5: M59: G1 variant: L1 R28N,T30D; L2 L56S; H2 E54K,A57N,S58N,H61F; HC-FW3 L99T,A100V (antibody, V domains shown)
VH: B1 VH with E58N
VL: B1 VL with T30D, A50G, T56S

α-rat koff (rat α-CGRP): 0.0053 s⁻¹
α-human koff (human α-CGRP): 0.000406 s⁻¹
B6: M50: G1 variant: L1 R28N; L2 G50A,L56T; H2 E54K,A57R; HC-FW3 L99T,A100V (antibody, V domains shown)
VH: B1 VH with N57R, E58S, F61H
VL: B1 VL

α-rat koff (rat α-CGRP): 0.0148 s⁻¹
α-human koff (human α-CGRP): 0.000595 s⁻¹
B7: M49: G1 variant: L1 R28N; L2 G50A,L56T; H2 E54K,A57N,S58Y,H61F; HC-FW3 L99T,A100V (antibody, V domains shown)
VH: B1 VH with E58Y
VL: B1 VL

α-rat koff (rat α-CGRP): 0.00229 s⁻¹
α-human koff (human α-CGRP): 0.000281 s⁻¹
B8: M52: G1 variant: L1 R28N; L2 L56I; H2 E54K,A57N,S58A; HC-FW3 L99T,A100V (antibody, V domains shown)
VH: B1 VH with E58A, F61H
VL: B1 VL with A50G, T56I

α-rat koff (rat α-CGRP): 0.00575 s⁻¹
α-human koff (human α-CGRP): 0.000557 s⁻¹
B9: M62: G1 variant: L1 R28N,T30G; L2 A51H,L56T; H2 E54K,A57N,S58E; HC-FW3 L99T,A100V (antibody, V domains shown)
VH: B1 VH with F61H
VL: B1 VL with T30G, A50G, A51H

α-rat koff (rat α-CGRP): 0.00191 s⁻¹
α-human koff (human α-CGRP): 0.000374 s⁻¹
B10: M53: G1 variant: L1 R28N; L2 L56I; H2 E54K,A57N,S58G; HC-FW3 L99T,A100V (antibody, V domains shown)
VH: B1 VH with E58G, F61H
VL: B1 VL with A50G, T56I

α-rat koff (rat α-CGRP): 0.00171 s⁻¹
α-human koff (human α-CGRP): 0.00082 s⁻¹
B11: M67: G1 variant: L1 R28N,T30G; L2 L56I; H2 E54K,A57F; HC-FW3 L99T,A100V (antibody, V domains shown)
VH: B1 VH with N57F, E58S, F61H
VL: B1 VL with T30G, A50G, T56I

α-rat koff (rat α-CGRP): 0.00521 s⁻¹
α-human koff (human α-CGRP): 0.000459 s⁻¹
B12: M61: G1 variant: L1 R28N,T30G; L2 A51H; H2 E54Q,A57N,H61F; HC-FW3 L99T,A100V (antibody, V domains shown)
VH: B1 VH with K54Q, E58S
VL: B1 VL with T30G, A50G, A51H, T56L

α-rat koff (rat α-CGRP): 0.0104 s⁻¹
α-human koff (human α-CGRP): 0.000322 s⁻¹
B13: M57: G1 variant: L1 R28N,T30D; L2 L56S; H2 E54K,A57N,S58E; HC-FW3 L99T,A100V (antibody, V domains shown)
VH: B1 VH with F61H
VL: B1 VL with T30D, A50G, T56S

α-rat koff (rat α-CGRP): 0.0343 s⁻¹
α-human koff (human α-CGRP): 0.000842 s⁻¹
B14: M48: G1 variant: L1 R28N; L2 G50A,L56T; H2 E54K,A57N,S58L; HC-FW3 L99T,A100V (antibody, V domains shown)
VH: B1 VH with E58L, F61H
VL: B1 VL

α-rat koff (rat α-CGRP): 0.00265 s⁻¹
α-human koff (human α-CGRP): 0.0015 s⁻¹
B15: M63: G1 variant: L1 R28N,T30G; L2 G50A; H2 E54K,A57N,S58T; HC-FW3 L99T,A100V (antibody, V domains shown)
VH: B1 VH with E58T, F61H
VL: B1 VL with T30G, T56L

α-rat koff (rat α-CGRP): 0.00585 s⁻¹
α-human koff (human α-CGRP): 0.000478 s⁻¹
B16: M55: G1 variant: L1 R28N,T30A; L2 L56S; H2 E54K,A57N,S58E,E64D; HC-FW3 L99T,A100V (antibody, V domains shown)
VH: B1 VH with F61H, E64D
VL: B1 VL with T30A, A50G, T56S

α-rat koff (rat α-CGRP): No binding
α-human koff (human α-CGRP): 0.00195 s⁻¹
B17: M58: G1 variant: L1 R28N,T30D; L2 L56S; H2 E54K,A57N,S58I,H61F; HC-FW3 L99T,A100V (antibody, V domains shown)
VH: B1 VH with E58I
VL: B1 VL with T30D, A50G, T56S

α-rat koff (rat α-CGRP): 0.0234 s⁻¹
α-human koff (human α-CGRP): 0.00132 s⁻¹
B18: M64: G1 variant: L1 R28N,T30G; L2 G50A; H2 E54K,A57N,S58V; HC-FW3 L99T,A100V (antibody, V domains shown)
VH: B1 VH with E58V, F61H
VL: B1 VL with T30G, T56L

α-rat koff (rat α-CGRP): 0.00118 s⁻¹
α-human koff (human α-CGRP): 0.000131 s⁻¹
B19: M51: G1 variant: L1 R28N; L2 L56I; H2 E54K,A57G; HC-FW3 L99T,A100V (antibody, V domains shown)
VH: B1 VH with N57G, E58S, F61H
VL: B1 VL with A50G, T56I

α-rat koff (rat α-CGRP): 0.0272 s⁻¹
α-human koff (human α-CGRP): 0.000911 s⁻¹
B20: M60: G1 variant: L1 R28N,T30D; L2 L56S; H2 E54K,A57N,S58R,H61F; HC-FW3 L99T,A100V (antibody, V domains shown)
VH: B1 VH with E58R
VL: B1 VL with T30D, A50G, T56S

α-rat koff (rat α-CGRP): 0.00823 s⁻¹
α-human koff (human α-CGRP): 0.000332 s⁻¹
B21: M47: G1 variant: L1 R28N; L2 G50A,L56T; H2 E54K,A57N,S58G; HC-FW3 L99T,A100V (antibody, V domains shown)
VH: B1 VH with E58G, F61H
VL: B1 VL

α-rat koff (rat α-CGRP): 0.00216 s⁻¹
α-human koff (human α-CGRP): 0.00179 s⁻¹
B22: M54: G1 variant: L1 R28N,T30A; L2 G50A; H2 E54K,A57N,S58P; HC-FW3 L99T,A100V (antibody, V domains shown)
VH: B1 VH with E58P, F61H
VL: B1 VL with T30A, T56L
